Assay results as given in patent KR20200059381A.

How the values were obtained:
[1] = molecular target: 구제역 바이러스 혈청형 O 배양액(cal1~cal4) (Foot-and-mouth disease virus serotype O); assay: sandwich ELISA, cal2, 1E58 coat 2 ug/ml, 1E58-HRP 0.6 ug/ml, 450 nm
[2] = molecular target: 구제역 바이러스 혈청형 O 배양액(cal1~cal4) (Foot-and-mouth disease virus serotype O); assay: sandwich ELISA, cal3, 1E58 coat 4 ug/ml, 1E58-HRP 0.6 ug/ml, 450 nm
[3] = molecular target: 구제역 바이러스 혈청형 O 배양액(cal1~cal4) (Foot-and-mouth disease virus serotype O); assay: sandwich ELISA, cal1, 1E58 coat 8 ug/ml, 1E58-HRP 0.4 ug/ml, 450 nm
[4] = molecular target: 구제역 바이러스 혈청형 O 배양액(cal1~cal4) (Foot-and-mouth disease virus serotype O); assay: sandwich ELISA, cal4, 1E58 coat 2 ug/ml, 1E58-HRP 0.6 ug/ml, 450 nm
[5] = molecular target: 구제역 바이러스 혈청형 O 배양액(cal1~cal4) (Foot-and-mouth disease virus serotype O); assay: sandwich ELISA, cal2, 1E58 coat 4 ug/ml, 1E58-HRP 0.6 ug/ml, 450 nm
[6] = molecular target: 구제역 바이러스 혈청형 O 배양액(cal1~cal4) (Foot-and-mouth disease virus serotype O); assay: sandwich ELISA, cal2, 1E58 coat 1 ug/ml, 1E58-HRP 0.4 ug/ml, 450 nm
[7] = molecular target: 구제역 바이러스 혈청형 O 배양액(cal1~cal4) (Foot-and-mouth disease virus serotype O); assay: sandwich ELISA, cal2, 1E58 coat 1 ug/ml, 1E58-HRP 0.2 ug/ml, 450 nm
[8] = molecular target: 구제역 바이러스 혈청형 O 배양액(cal1~cal4) (Foot-and-mouth disease virus serotype O); assay: sandwich ELISA, cal4, 1E58 coat 1 ug/ml, 1E58-HRP 0.6 ug/ml, 450 nm
[9] = molecular target: 구제역 바이러스 혈청형 O 배양액(cal1~cal4) (Foot-and-mouth disease virus serotype O); assay: sandwich ELISA, cal1, 1E58 coat 1 ug/ml, 1E58-HRP 0.6 ug/ml, 450 nm
[10] = molecular target: 구제역 바이러스 혈청형 O 배양액(cal1~cal4) (Foot-and-mouth disease virus serotype O); assay: sandwich ELISA, cal2, 1E58 coat 8 ug/ml, 1E58-HRP 0.4 ug/ml, 450 nm
[11] = molecular target: 구제역 바이러스 혈청형 O 배양액(cal1~cal4) (Foot-and-mouth disease virus serotype O); assay: sandwich ELISA, cal2, 1E58 coat 4 ug/ml, 1E58-HRP 0.8 ug/ml, 450 nm
[12] = molecular target: 구제역 바이러스 혈청형 O 배양액(cal1~cal4) (Foot-and-mouth disease virus serotype O); assay: sandwich ELISA, cal2, 1E58 coat 1 ug/ml, 1E58-HRP 0.6 ug/ml, 450 nm
[13] = molecular target: 구제역 바이러스 혈청형 O 배양액(cal1~cal4) (Foot-and-mouth disease virus serotype O); assay: sandwich ELISA, cal4, 1E58 coat 2 ug/ml, 1E58-HRP 0.2 ug/ml, 450 nm
[14] = molecular target: 구제역 바이러스 혈청형 O 배양액(cal1~cal4) (Foot-and-mouth disease virus serotype O); assay: sandwich ELISA, cal4, 1E58 coat 8 ug/ml, 1E58-HRP 0.4 ug/ml, 450 nm
[15] = molecular target: 구제역 바이러스 혈청형 O 배양액(cal1~cal4) (Foot-and-mouth disease virus serotype O); assay: sandwich ELISA, cal2, 1E58 coat 4 ug/ml, 1E58-HRP 0.2 ug/ml, 450 nm
[16] = molecular target: 구제역 바이러스 혈청형 O 배양액(cal1~cal4) (Foot-and-mouth disease virus serotype O); assay: sandwich ELISA, cal1, 1E58 coat 1 ug/ml, 1E58-HRP 0.2 ug/ml, 450 nm
[17] = molecular target: 불활화 FMDV 혈청형 O (Foot-and-mouth disease virus serotype O)
[18] = molecular target: 불활화 FMDV 혈청형 Asia1 (Foot-and-mouth disease virus serotype Asia1)
[19] = molecular target: 불활화 FMDV 혈청형 A (Foot-and-mouth disease virus serotype A)
[20] = molecular target: 구제역 바이러스 혈청형 O 배양액(cal1~cal4) (Foot-and-mouth disease virus serotype O); assay: sandwich ELISA, cal3, 1E58 coat 2 ug/ml, 1E58-HRP 0.8 ug/ml, 450 nm
[21] = molecular target: 구제역 바이러스 혈청형 O 배양액(cal1~cal4) (Foot-and-mouth disease virus serotype O); assay: sandwich ELISA, cal3, 1E58 coat 4 ug/ml, 1E58-HRP 0.4 ug/ml, 450 nm
[22] = molecular target: 구제역 바이러스 혈청형 O 배양액(cal1~cal4) (Foot-and-mouth disease virus serotype O); assay: sandwich ELISA, cal3, 1E58 coat 8 ug/ml, 1E58-HRP 0.6 ug/ml, 450 nm
[23] = molecular target: 구제역 바이러스 혈청형 O 배양액(cal1~cal4) (Foot-and-mouth disease virus serotype O); assay: sandwich ELISA, cal3, 1E58 coat 1 ug/ml, 1E58-HRP 0.2 ug/ml, 450 nm
[24] = molecular target: 구제역 바이러스 혈청형 O 배양액(cal1~cal4) (Foot-and-mouth disease virus serotype O); assay: sandwich ELISA, cal4, 1E58 coat 1 ug/ml, 1E58-HRP 0.4 ug/ml, 450 nm
[25] = molecular target: 구제역 바이러스 혈청형 O 배양액(cal1~cal4) (Foot-and-mouth disease virus serotype O); assay: sandwich ELISA, cal4, 1E58 coat 2 ug/ml, 1E58-HRP 0.8 ug/ml, 450 nm
[26] = molecular target: 구제역 바이러스 혈청형 O 배양액(cal1~cal4) (Foot-and-mouth disease virus serotype O); assay: sandwich ELISA, cal4, 1E58 coat 4 ug/ml, 1E58-HRP 0.2 ug/ml, 450 nm
[27] = molecular target: 구제역 바이러스 혈청형 O 배양액(cal1~cal4) (Foot-and-mouth disease virus serotype O); assay: sandwich ELISA, cal2, 1E58 coat 8 ug/ml, 1E58-HRP 0.8 ug/ml, 450 nm
[28] = molecular target: 구제역 바이러스 혈청형 O 배양액(cal1~cal4) (Foot-and-mouth disease virus serotype O); assay: sandwich ELISA, cal3, 1E58 coat 1 ug/ml, 1E58-HRP 0.8 ug/ml, 450 nm
[29] = molecular target: 구제역 바이러스 혈청형 O 배양액(cal1~cal4) (Foot-and-mouth disease virus serotype O); assay: sandwich ELISA, cal1, 1E58 coat 4 ug/ml, 1E58-HRP 0.6 ug/ml, 450 nm

B1: 단클론항체 1E58 (antibody, V domains shown)
VH: EFQLQQSRPELAKPGASVKISCKTSGHTFTTYTMHWVKQSHVKSLEWIGCFNPNNGGATYNQKFKGKATLTMDKSSNTAYVEVRSLTSDDSAVYYCAYGNYVNFDYWGQGTTLTVSS
VL: DIVLTQSPASLAVSLGQRATISYRASKSVSTSGYSYMHWNQQKPGQPPRLLIYLVSNLESGVPARFSGSGSGTDFTLNIHPVEEEDAATYYCQHIRELTRSEGGPSWKN
Which O.D [1] does the source give for B1 here?
The O.D was 3.42 O.D.

And the O.D [2]?
Its O.D is 2.15 O.D.

And the O.D [3]?
The O.D was 3.18 O.D.

And the O.D [4]?
Its O.D is 0.87 O.D.

What about the O.D [5] of the same binder?
Its O.D is 3.47 O.D.

What about the O.D [6] of the same binder?
The O.D was 1.4 O.D.

And the O.D [7]?
The O.D was 1.06 O.D.

What about the O.D [8] of the same binder?
The O.D was 0.74 O.D.

And the O.D [9]?
Its O.D is 2.98 O.D.

What about the O.D [10] of the same binder?
The O.D was 1.85 O.D.

And the O.D [11]?
The O.D was 3.75 O.D.

What about the O.D [12] of the same binder?
Its O.D is 1.55 O.D.

And the O.D [13]?
The O.D was 0.62 O.D.

And the O.D [14]?
Its O.D is 0.39 O.D.

And the O.D [15]?
The O.D was 2.09 O.D.

And the O.D [16]?
The O.D was 1.81 O.D.

And the ELISA screening plate (O.D) [17]?
Its ELISA screening plate (O.D) is 2.02 O.D.

And the ELISA screening plate (O.D) [18]?
Its ELISA screening plate (O.D) is 1.93 O.D.

What about the ELISA screening plate (O.D) [19] of the same binder?
The ELISA screening plate (O.D) was 2.13 O.D.

What about the O.D [20] of the same binder?
The O.D was 2.08 O.D.

What about the O.D [21] of the same binder?
The O.D was 1.78 O.D.

What about the O.D [22] of the same binder?
Its O.D is 1.13 O.D.

And the O.D [23]?
Its O.D is 0.54 O.D.

What about the O.D [24] of the same binder?
The O.D was 0.65 O.D.

What about the O.D [25] of the same binder?
The O.D was 1.05 O.D.

And the O.D [26]?
Its O.D is 0.63 O.D.

What about the O.D [27] of the same binder?
The O.D was 4 O.D.

And the O.D [28]?
The O.D was 1.17 O.D.

And the O.D [29]?
Its O.D is 4 O.D.
